Patent US20130157929A1, “GLUCAGON ANALOGUES” (ZEALAND PHARMA A/S, published 2013)
Blank lines part the entries; values can stand above or below the binder they belong to. Starred links: 1 amine or outer side, 2 acyl side, 3 side chain; linkers in the order of their positions; H or OH if unused. Non-standard residues stand in square brackets, D forms with d. Groups on a side chain read outwards from the residue. *: point of attachment. γGlu = O=C(O)[C@H](CCC(=O)[*:2])N[*:1]; Palmitoyl = CCCCCCCCCCCCCCCC(=O)*; 3Pal = N[C@@H](Cc1cccnc1)C(=O)O; Cit = NC(=O)NCCC[C@H](N)C(=O)O; Aib = CC(C)(N)C(=O)O

Columns and labels:
[1] = target: human glucagon-like peptide 1 receptor (GLP-1R) (human, UniProt P43220); experiment: cell-based or functional assay
[2] = target: human glucagon receptor (glucagon-R) (human, UniProt P47871); experiment: cell-based or functional assay

Binder: H-H[Aib][3‑(3-thienyl)alanyl]GTFTSDYSKYLDSK([γGlu-Palmitoyl])AAHDFVEWLLSA-NH2 [Compound 27]
EC50 (nM) GLP-1R, cAMP formation [1]: 0.27 nM | EC50 (nM) GluR, cAMP formation [2]: 1.58 nM

B1: Compound 19 (peptide)
peptide: H-H[Aib]IGTFTSDYSKYLDSK([γGlu-Palmitoyl])AAHDFVEWLLSA-NH2
SMILES: CCCCCCCCCCCCCCCC(=O)N[C@@H](CCC(=O)NCCCC[C@H](NC(=O)[C@H](CO)NC(=O)[C@H](CC(=O)O)NC(=O)[C@H](CC(C)C)NC(=O)[C@H](Cc1ccc(O)cc1)NC(=O)[C@H](CCCCN)NC(=O)[C@H](CO)NC(=O)[C@H](Cc1ccc(O)cc1)NC(=O)[C@H](CC(=O)O)NC(=O)[C@H](CO)NC(=O)[C@@H](NC(=O)[C@H](Cc1ccccc1)NC(=O)[C@@H](NC(=O)CNC(=O)[C@@H](NC(=O)C(C)(C)NC(=O)[C@@H](N)Cc1c[nH]cn1)[C@@H](C)CC)[C@@H](C)O)[C@@H](C)O)C(=O)N[C@@H](C)C(=O)N[C@@H](C)C(=O)N[C@@H](Cc1c[nH]cn1)C(=O)N[C@@H](CC(=O)O)C(=O)N[C@@H](Cc1ccccc1)C(=O)N[C@H](C(=O)N[C@@H](CCC(=O)O)C(=O)N[C@@H](Cc1c[nH]c2ccccc12)C(=O)N[C@@H](CC(C)C)C(=O)N[C@@H](CC(C)C)C(=O)N[C@@H](CO)C(=O)N[C@@H](C)C(N)=O)C(C)C)C(=O)O
EC50 (nM) GLP-1R, cAMP formation [1]: 0.16 nM | EC50 (nM) GluR, cAMP formation [2]: 0.74 nM | EC50 (nM) GluR, cAMP formation, earlier determination [2]: 3 nM

B3: Compound 1 (peptide)
peptide: H-H[Aib]HGTFTSDYSKYLDSK([γGlu-Palmitoyl])AAHDFVEWLLSA-NH2
SMILES: CCCCCCCCCCCCCCCC(=O)N[C@@H](CCC(=O)NCCCC[C@H](NC(=O)[C@H](CO)NC(=O)[C@H](CC(=O)O)NC(=O)[C@H](CC(C)C)NC(=O)[C@H](Cc1ccc(O)cc1)NC(=O)[C@H](CCCCN)NC(=O)[C@H](CO)NC(=O)[C@H](Cc1ccc(O)cc1)NC(=O)[C@H](CC(=O)O)NC(=O)[C@H](CO)NC(=O)[C@@H](NC(=O)[C@H](Cc1ccccc1)NC(=O)[C@@H](NC(=O)CNC(=O)[C@H](Cc1c[nH]cn1)NC(=O)C(C)(C)NC(=O)[C@@H](N)Cc1c[nH]cn1)[C@@H](C)O)[C@@H](C)O)C(=O)N[C@@H](C)C(=O)N[C@@H](C)C(=O)N[C@@H](Cc1c[nH]cn1)C(=O)N[C@@H](CC(=O)O)C(=O)N[C@@H](Cc1ccccc1)C(=O)N[C@H](C(=O)N[C@@H](CCC(=O)O)C(=O)N[C@@H](Cc1c[nH]c2ccccc12)C(=O)N[C@@H](CC(C)C)C(=O)N[C@@H](CC(C)C)C(=O)N[C@@H](CO)C(=O)N[C@@H](C)C(N)=O)C(C)C)C(=O)O
EC50 (nM) GLP-1R, cAMP formation [1]: 0.21 nM | EC50 (nM) GluR, cAMP formation [2]: 0.26 nM

B4: Compound 20 (peptide)
peptide: H-H[Aib]GGTFTSDYSKYLDSK([γGlu-Palmitoyl])AAHDFVEWLLSA-NH2
SMILES: CCCCCCCCCCCCCCCC(=O)N[C@@H](CCC(=O)NCCCC[C@H](NC(=O)[C@H](CO)NC(=O)[C@H](CC(=O)O)NC(=O)[C@H](CC(C)C)NC(=O)[C@H](Cc1ccc(O)cc1)NC(=O)[C@H](CCCCN)NC(=O)[C@H](CO)NC(=O)[C@H](Cc1ccc(O)cc1)NC(=O)[C@H](CC(=O)O)NC(=O)[C@H](CO)NC(=O)[C@@H](NC(=O)[C@H](Cc1ccccc1)NC(=O)[C@@H](NC(=O)CNC(=O)CNC(=O)C(C)(C)NC(=O)[C@@H](N)Cc1c[nH]cn1)[C@@H](C)O)[C@@H](C)O)C(=O)N[C@@H](C)C(=O)N[C@@H](C)C(=O)N[C@@H](Cc1c[nH]cn1)C(=O)N[C@@H](CC(=O)O)C(=O)N[C@@H](Cc1ccccc1)C(=O)N[C@H](C(=O)N[C@@H](CCC(=O)O)C(=O)N[C@@H](Cc1c[nH]c2ccccc12)C(=O)N[C@@H](CC(C)C)C(=O)N[C@@H](CC(C)C)C(=O)N[C@@H](CO)C(=O)N[C@@H](C)C(N)=O)C(C)C)C(=O)O
EC50 (nM) GLP-1R, cAMP formation [1]: 0.21 nM | EC50 (nM) GLP-1R, cAMP formation, earlier determination [1]: 0.89 nM | EC50 (nM) GluR, cAMP formation [2]: 26 nM

Binder: H-H[Aib][3Pal]GTFTSDYSKYLDSK([γGlu-Palmitoyl])AAHDFVEWLLSA-NH2 [Compound 24]
EC50 (nM) GLP-1R, cAMP formation [1]: 0.14 nM | EC50 (nM) GluR, cAMP formation [2]: 1.04 nM

B5: Compound 16 (peptide)
peptide: H-H[Aib]VGTFTSDYSKYLDSK([γGlu-Palmitoyl])AAHDFVEWLLSA-NH2
SMILES: CCCCCCCCCCCCCCCC(=O)N[C@@H](CCC(=O)NCCCC[C@H](NC(=O)[C@H](CO)NC(=O)[C@H](CC(=O)O)NC(=O)[C@H](CC(C)C)NC(=O)[C@H](Cc1ccc(O)cc1)NC(=O)[C@H](CCCCN)NC(=O)[C@H](CO)NC(=O)[C@H](Cc1ccc(O)cc1)NC(=O)[C@H](CC(=O)O)NC(=O)[C@H](CO)NC(=O)[C@@H](NC(=O)[C@H](Cc1ccccc1)NC(=O)[C@@H](NC(=O)CNC(=O)[C@@H](NC(=O)C(C)(C)NC(=O)[C@@H](N)Cc1c[nH]cn1)C(C)C)[C@@H](C)O)[C@@H](C)O)C(=O)N[C@@H](C)C(=O)N[C@@H](C)C(=O)N[C@@H](Cc1c[nH]cn1)C(=O)N[C@@H](CC(=O)O)C(=O)N[C@@H](Cc1ccccc1)C(=O)N[C@H](C(=O)N[C@@H](CCC(=O)O)C(=O)N[C@@H](Cc1c[nH]c2ccccc12)C(=O)N[C@@H](CC(C)C)C(=O)N[C@@H](CC(C)C)C(=O)N[C@@H](CO)C(=O)N[C@@H](C)C(N)=O)C(C)C)C(=O)O
EC50 (nM) GLP-1R, cAMP formation [1]: 0.13 nM | EC50 (nM) GluR, cAMP formation [2]: 3 nM

Binder: H-H[Aib][3‑(4-thiazolyl)alanyl]GTFTSDYSKYLDSK([γGlu-Palmitoyl])AAHDFVEWLLSA-NH2 [Compound 23]
EC50 (nM) GLP-1R, cAMP formation [1]: 0.11 nM | EC50 (nM) GluR, cAMP formation [2]: 0.99 nM

Other lines, results leading:

EC50 (nM) GLP-1R, cAMP formation [1]: 1.2 nM | EC50 (nM) GluR, cAMP formation [2]: 35 nM
B2: Compound 21 (peptide)
peptide: H-H[Aib][Cit]GTFTSDYSKYLDSK([γGlu-Palmitoyl])AAHDFVEWLLSA-NH2
SMILES: CCCCCCCCCCCCCCCC(=O)N[C@@H](CCC(=O)NCCCC[C@H](NC(=O)[C@H](CO)NC(=O)[C@H](CC(=O)O)NC(=O)[C@H](CC(C)C)NC(=O)[C@H](Cc1ccc(O)cc1)NC(=O)[C@H](CCCCN)NC(=O)[C@H](CO)NC(=O)[C@H](Cc1ccc(O)cc1)NC(=O)[C@H](CC(=O)O)NC(=O)[C@H](CO)NC(=O)[C@@H](NC(=O)[C@H](Cc1ccccc1)NC(=O)[C@@H](NC(=O)CNC(=O)[C@H](CCCNC(N)=O)NC(=O)C(C)(C)NC(=O)[C@@H](N)Cc1c[nH]cn1)[C@@H](C)O)[C@@H](C)O)C(=O)N[C@@H](C)C(=O)N[C@@H](C)C(=O)N[C@@H](Cc1c[nH]cn1)C(=O)N[C@@H](CC(=O)O)C(=O)N[C@@H](Cc1ccccc1)C(=O)N[C@H](C(=O)N[C@@H](CCC(=O)O)C(=O)N[C@@H](Cc1c[nH]c2ccccc12)C(=O)N[C@@H](CC(C)C)C(=O)N[C@@H](CC(C)C)C(=O)N[C@@H](CO)C(=O)N[C@@H](C)C(N)=O)C(C)C)C(=O)O

EC50 (nM) GLP-1R, cAMP formation [1]: 0.08 nM | EC50 (nM) GluR, cAMP formation [2]: 1.16 nM
Binder: H-H[Aib][3‑(2-thienyl)alanyl]GTFTSDYSKYLDSK([γGlu-Palmitoyl])AAHDFVEWLLSA-NH2 [Compound 26]

EC50 (nM) GLP-1R, cAMP formation [1]: 0.06 nM | EC50 (nM) GluR, cAMP formation [2]: 3.8 nM
Binder: H-H[Aib][3‑(2-furyl)alanyl]GTFTSDYSKYLDSK([γGlu-Palmitoyl])AAHDFVEWLLSA-NH2 [Compound 22]

EC50 (nM) GLP-1R, cAMP formation [1]: 0.11 nM | EC50 (nM) GluR, cAMP formation [2]: 4.85 nM
Binder: H-H[Aib][3‑(1-pyrazolyl)alanyl]GTFTSDYSKYLDSK([γGlu-Palmitoyl])AAHDFVEWLLSA-NH2 [Compound 28]

EC50 (nM) GLP-1R, cAMP formation [1]: 0.09 nM | EC50 (nM) GluR, cAMP formation [2]: 8 nM
B6: Compound 18 (peptide)
peptide: H-H[Aib]SGTFTSDYSKYLDSK([γGlu-Palmitoyl])AAHDFVEWLLSA-NH2
SMILES: CCCCCCCCCCCCCCCC(=O)N[C@@H](CCC(=O)NCCCC[C@H](NC(=O)[C@H](CO)NC(=O)[C@H](CC(=O)O)NC(=O)[C@H](CC(C)C)NC(=O)[C@H](Cc1ccc(O)cc1)NC(=O)[C@H](CCCCN)NC(=O)[C@H](CO)NC(=O)[C@H](Cc1ccc(O)cc1)NC(=O)[C@H](CC(=O)O)NC(=O)[C@H](CO)NC(=O)[C@@H](NC(=O)[C@H](Cc1ccccc1)NC(=O)[C@@H](NC(=O)CNC(=O)[C@H](CO)NC(=O)C(C)(C)NC(=O)[C@@H](N)Cc1c[nH]cn1)[C@@H](C)O)[C@@H](C)O)C(=O)N[C@@H](C)C(=O)N[C@@H](C)C(=O)N[C@@H](Cc1c[nH]cn1)C(=O)N[C@@H](CC(=O)O)C(=O)N[C@@H](Cc1ccccc1)C(=O)N[C@H](C(=O)N[C@@H](CCC(=O)O)C(=O)N[C@@H](Cc1c[nH]c2ccccc12)C(=O)N[C@@H](CC(C)C)C(=O)N[C@@H](CC(C)C)C(=O)N[C@@H](CO)C(=O)N[C@@H](C)C(N)=O)C(C)C)C(=O)O

EC50 (nM) GLP-1R, cAMP formation [1]: 0.09 nM | EC50 (nM) GluR, cAMP formation [2]: 0.71 nM
Binder: H-H[Aib][3‑(1,2,4-triazol-1-yl)alanyl]GTFTSDYSKYLDSK([γGlu-Palmitoyl])AAHDFVEWLLSA-NH2 [Compound 25]

EC50 (nM) GLP-1R, cAMP formation [1]: 0.09 nM | EC50 (nM) GluR, cAMP formation [2]: 3.4 nM
B7: Compound 17 (peptide)
peptide: H-H[Aib]AGTFTSDYSKYLDSK([γGlu-Palmitoyl])AAHDFVEWLLSA-NH2
SMILES: CCCCCCCCCCCCCCCC(=O)N[C@@H](CCC(=O)NCCCC[C@H](NC(=O)[C@H](CO)NC(=O)[C@H](CC(=O)O)NC(=O)[C@H](CC(C)C)NC(=O)[C@H](Cc1ccc(O)cc1)NC(=O)[C@H](CCCCN)NC(=O)[C@H](CO)NC(=O)[C@H](Cc1ccc(O)cc1)NC(=O)[C@H](CC(=O)O)NC(=O)[C@H](CO)NC(=O)[C@@H](NC(=O)[C@H](Cc1ccccc1)NC(=O)[C@@H](NC(=O)CNC(=O)[C@H](C)NC(=O)C(C)(C)NC(=O)[C@@H](N)Cc1c[nH]cn1)[C@@H](C)O)[C@@H](C)O)C(=O)N[C@@H](C)C(=O)N[C@@H](C)C(=O)N[C@@H](Cc1c[nH]cn1)C(=O)N[C@@H](CC(=O)O)C(=O)N[C@@H](Cc1ccccc1)C(=O)N[C@H](C(=O)N[C@@H](CCC(=O)O)C(=O)N[C@@H](Cc1c[nH]c2ccccc12)C(=O)N[C@@H](CC(C)C)C(=O)N[C@@H](CC(C)C)C(=O)N[C@@H](CO)C(=O)N[C@@H](C)C(N)=O)C(C)C)C(=O)O
